According to patent publication US20140348747A1:

Tests used:
Assay in all cases: cell-based or functional assay
[1] = target: wild-type non-luminescent polypeptide (WT fragment of residues 1-156 of NanoLuc)
NLpep9-HT = target: NLpep9-HT
NLpep53-HT = target: NLpep53-HT

| luminescence after complementation (relative; unit not given) [1] | luminescence after complementation (RLU(mutant)/RLU(WT)) (NLpep9-HT) | luminescence after complementation (RLU(mutant)/RLU(WT)) (NLpep53-HT) | Substance |
| --- | --- | --- | --- |
| 0.846 | – | – | HT-NLpep A169E |
| 1.11 | – | – | HT-NLpep A169L |
| 0.911 | – | – | HT-NLpep A169N |
| 0.985 | – | – | HT-NLpep A169R |
| 0.945 | – | – | HT-NLpep A169T |
| 0.0874 | – | – | HT-NLpep C164N |
| 0.0116 | – | – | HT-NLpep C164T |
| 0.114 | – | – | HT-NLpep G157D |
| 0.196 | – | – | HT-NLpep G157E |
| 0.938 | – | – | HT-NLpep G157H |
| 0.641 | – | – | HT-NLpep G157N |
| 1.99 | – | – | HT-NLpep G157S |
| 0.277 | – | – | HT-NLpep I167E |
| 0.283 | – | – | HT-NLpep I167F |
| 0.0178 | – | – | HT-NLpep I167Q |
| 0.0464 | – | – | HT-NLpep I167R |
| 0.877 | – | – | HT-NLpep I167V |
| 0.0885 | – | – | HT-NLpep L163K |
| 0.0259 | – | – | HT-NLpep L163T |
| 0.173 | – | – | HT-NLpep L163V |
| 0.0512 | – | – | HT-NLpep L163Y |
| 1.09 | – | – | HT-NLpep R166K |

| luminescence after complementation (relative; unit not given) [1] | luminescence after complementation (RLU(mutant)/RLU(WT)) (NLpep9-HT) | luminescence after complementation (RLU(mutant)/RLU(WT)) (NLpep53-HT) | Substance |
| --- | --- | --- | --- |
| 0.103 | – | – | HT-NLpep R166N |
| 0.049 | – | – | HT-NLpep T159K |
| 0.398 | – | – | HT-NLpep T159Q |
| 0.566 | – | – | HT-NLpep T159V |
| 0.135 | – | – | HT-NLpep V158A |
| 0.608 | – | – | HT-NLpep V158I |
| 0.077 | – | – | HT-NLpep V158K |
| 0.0445 | – | – | HT-NLpep V158Q |
| 0.0487 | – | – | HT-NLpep V158S |
| 0.0002 | – | – | HT-NLpep W161K |
| 0.0028 | – | – | HT-NLpep W161T |
| 0.0086 | – | – | HT-NLpep W161V |
| 0.789 | – | – | NLpep-HT A169E |
| 0.905 | – | – | NLpep-HT A169L |
| 1.78 | – | – | NLpep-HT A169N |
| 0.501 | – | – | NLpep-HT A169R |
| 1.37 | – | – | NLpep-HT A169T |
| 0.0858 | – | – | NLpep-HT C164A |
| 13.3 | – | – | NLpep-HT C164F |
| 0.76 | – | – | NLpep-HT C164H |
| 0.0005 | – | – | NLpep-HT C164K |
| 1.02 | – | – | NLpep-HT C164L |

| luminescence after complementation (relative; unit not given) [1] | luminescence after complementation (RLU(mutant)/RLU(WT)) (NLpep9-HT) | luminescence after complementation (RLU(mutant)/RLU(WT)) (NLpep53-HT) | Substance |
| --- | --- | --- | --- |
| 3.26 | – | – | NLpep-HT C164M |
| 0.108 | – | – | NLpep-HT C164N |
| 0.0211 | – | – | NLpep-HT C164Q |
| 0.0202 | – | – | NLpep-HT C164S |
| 0.0084 | – | – | NLpep-HT C164T |
| 1.01 | – | – | NLpep-HT C164Y |
| 0.0468 | – | – | NLpep-HT G157C |
| 0.549 | – | – | NLpep-HT G157D |
| 1.45 | – | – | NLpep-HT G157E |
| 0.573 | – | – | NLpep-HT G157H |
| 3.31 | – | – | NLpep-HT G157N |
| 0.0543 | – | – | NLpep-HT G157P |
| 1.72 | – | – | NLpep-HT G157S |
| 0.244 | – | – | NLpep-HT I167E |
| 0.179 | – | – | NLpep-HT I167F |
| 0.117 | – | – | NLpep-HT I167Q |
| 0.0469 | – | – | NLpep-HT I167R |
| 1.08 | – | – | NLpep-HT I167V |
| 0.292 | – | – | NLpep-HT L163I |
| 0.0786 | – | – | NLpep-HT L163K |
| 0.0262 | – | – | NLpep-HT L163T |
| 0.119 | – | – | NLpep-HT L163V |

| luminescence after complementation (relative; unit not given) [1] | luminescence after complementation (RLU(mutant)/RLU(WT)) (NLpep9-HT) | luminescence after complementation (RLU(mutant)/RLU(WT)) (NLpep53-HT) | Substance |
| --- | --- | --- | --- |
| 0.196 | – | – | NLpep-HT L163Y |
| 1.21 | – | – | NLpep-HT R166K |
| 0.118 | – | – | NLpep-HT R166N |
| 0.0307 | – | – | NLpep-HT T159K |
| 0.031 | – | – | NLpep-HT T159Q |
| 0.0455 | – | – | NLpep-HT T159V |
| 0.144 | – | – | NLpep-HT V158A |
| 1.6 | – | – | NLpep-HT V158I |
| 0.192 | – | – | NLpep-HT V158K |
| 0.0397 | – | – | NLpep-HT V158Q |
| 0.0838 | – | – | NLpep-HT V158S |
| 0.0012 | – | – | NLpep-HT W161E |
| 0.0717 | – | – | NLpep-HT W161F |
| 0.0008 | – | – | NLpep-HT W161K |
| 0.01 | – | – | NLpep-HT W161T |
| 0.005 | – | – | NLpep-HT W161V |
| 0.215 | – | – | NLpep-HT W161Y |
| – | 2.08 | 1.88 | NLpoly D108N |
| – | 4.1 | 2.83 | NLpoly F31I |
| – | 3.13 | 2.86 | NLpoly F31L |
| – | 2.12 | 2.12 | NLpoly F31V |
| – | 1.98 | 2.34 | NLpoly G15S |

| luminescence after complementation (relative; unit not given) [1] | luminescence after complementation (RLU(mutant)/RLU(WT)) (NLpep9-HT) | luminescence after complementation (RLU(mutant)/RLU(WT)) (NLpep53-HT) | Substance |
| --- | --- | --- | --- |
| – | 1.78 | 1.57 | NLpoly G67D |
| – | 1.22 | 1.29 | NLpoly G67S |
| – | 0.44 | 1.81 | NLpoly I56N |
| – | 1.07 | 1.35 | NLpoly I59T |
| – | 2.08 | 2.05 | NLpoly K75E |
| – | 3.81 | 2.99 | NLpoly L18Q |
| – | 2.89 | 2.16 | NLpoly L149M |
| – | 1.27 | 1.31 | NLpoly M106I |
| – | 1.3 | 1.4 | NLpoly M106V |
| – | 2.15 | 1.76 | NLpoly N33K |
| – | 2.1 | 1.56 | NLpoly N33R |
| – | 3.69 | 2.26 | NLpoly N144T |
| – | 1.57 | 1.21 | NLpoly N156D |
| – | 1.04 | 1.4 | NLpoly N156S |
| – | 4.43 | 2.33 | NLpoly Q20K |
| – | 1.52 | 1.04 | NLpoly Q32R |
| – | 3.37 | 2.09 | NLpoly R11N |
| – | 1.61 | 1.45 | NLpoly R112N |
| – | 2.18 | 1.44 | NLpoly T13I |
| – | 1.99 | 1.7 | NLpoly V27M |
| – | 1.88 | 1.07 | NLpoly V58A |
| – | 4.98 | 3.02 | NLpoly V157D |
